For the test, the target named is integrin αIIbβ3 (Homo sapiens, UniProt P08514). Kind of test: tryptophan fluorescence quenching (Stern-Volmer).

As usually defined, the Kd is the free concentration of one partner at which half of the binding sites on the other are occupied at equilibrium, for simple one-to-one binding. A low value points to a tighter complex.

Molecule Ac-MRGDH-NH2 (also: Met and His coordinated to Δ-Ru(Ph2phen)2, Cl2 salt) [Δ-[Ru(Ph2phen)2(Ac-MRGDH-NH2)]Cl2 (Δ-[1]Cl2)] came in with an equilibrium dissociation constant (Kd) of 83 nM.

Molecule Ac-MRADH-NH2 (also: Met and His coordinated to Δ-Ru(Ph2phen)2, dichloride salt) [Δ-[Ru(Ph2phen)2(Ac-MRADH-NH2)]Cl2 (Δ-[3]Cl2)] had a Kd of 112 nM.

The molecule Ac-MRGDH-NH2 (also: Met and His coordinated to Λ-Ru(Ph2phen)2, Cl2 salt) [Λ-[Ru(Ph2phen)2(Ac-MRGDH-NH2)]Cl2 (Λ-[1]Cl2)] displayed a Kd of 61 nM.

The values above are taken from PMC10347550 (2023).
